Measured values as given in EP4628095A1 (Xiamen University, dated 2025).

Legend:
P2-4G-BGTSTIP = molecular target: T1, P2-4G-BGTSTIP; experiment: SPR (Biacore 8K), HEV-p239 coupled to CM5 chip (Fig. 12)
T1 construct: also called PA-4G-BGTSTIP; VHH-BGTSTIP

[1] = molecular target: P1-1G-RBD (insect cell expression system); experiment: SPR (Biacore 8K), HEV-p239 coupled to CM5 chip (Fig. 10A)
[2] = molecular target: P2-2C-RBD (insect cell expression system); experiment: as above

Measured: binding result

B1: HEV-p239 protein (other)
chain: IALTLFNLADTLLGGLPTELISSAGGQLFYSRPVVSANGEPTVKLYTSVENAQQDKGIAIPHDIDLGESRVVIQDYDNQHEQDRPTPSPAPSRPFSVLRANDVLWLSLTAAEYDQSTYGSSTGPVYVSDSVTLVNVATGAQAVARSLDWTKVTLDGRPLSTIQQYSKTFFVLPLRGKLSFWEAGTTKAGYPYNYNTTASDQLLVENAAGHRVAISTYTTSLGAGPVSISAVAVLAPHSV
notes: also called HEV-p239 particles; HEV particles
binds: P2-4G-BGTSTIP | [1] | [2]
